Measurements from article PMC11806767, “The tryptophan-aspartate (WD) repeat domain of bovine Coronin-1A promotes mycobacterial survival by inhibiting calcium signaling-mediated phagosome-lysosome fusion” (Veterinary Research, 2025).

Biological target: the molecule itself
Assay: native gel or EMSA

B1: bovine Coronin-1A (p3×Flag-bCoronin-1A) (natural protein)
chain: MSRQVVRSSKFRHVFGQPAKADQCYEDVRVSQNTWDSGFCAVNPKFVALICEASGGGAFLVLPLGKTGRVDKNVPMVCGHTAPVLDIAWCPHNDNVIASGSEDCSVMVWEIPDGGLTLPLREPVVTLEGHTKRVGIVAWHPTAQNVLLSAGCDNVILVWDVGTGVAVLTLGSDVHPDTIYSVDWSRDGALICTSCRDKRVRIIEPRKGTIVAEKDRPHEGTRPVRAVFVSDGKILTTGFSRMSERQVALWDTKHLEEPLSLQELDTSSGVLLPFFDPDTNIVYLCGKGDSSIRYFEITSEAPFLHYLSMFSSKESQRGMGYMPKRGLEVNKCEIARFYKLHERKCEPIAMTVPRKSDLFQEDLYPPTAGPDAALTAEEWLGGRDAGPLLISLKDGYVPPKSRELRVNRGLDTGRKRTTPEASGAPSSDAISRLEEEMRKLQATVQELQKRLDRLEETVQAK
  stoichiometry N: 3
